Measured values: the DeepSol protein solubility set

test: soluble on expression in E. coli; label from the status in PepcDB or PDB records

Question: With “MKEKIPFYNEKEFNEMMKKTKKGTFSGWYIINPENKSVEFSGNFNRQFKLNKPVIPVNTEYVTRKEFNEYKDSNDQRLTKIENKVDKLEVKVDKLEEKVDKLEAKVDKLEEKVDKLEAKVDKLEEKVDKLEAKVDSGFEMLAKILAAINKRLDSIEGRLDKIEPPKLEHHHHHH” as the sequence, how does the “soluble on expression in E. coli” value read?
Answer: not soluble

Question: Which “soluble on expression in E. coli” value does the source give for “MKETDLAFFRSFKNRILKEINVMQLCRVVTVKGARADVQPMALKSDGGKRALILNALITKHCQSDISQGAVVVVVFCDRDIDNYRSSADYSLSSDRMHSQNDAVIMGVIA” here?
Answer: not soluble

Question: With “MKEVRIVFQPGEISVPVAAGTTIMEAMNRSGLGEDFPCGGRGKCGKCRVKVREGREDFTAIDEDHLTAQELAEGVRLACATKINRDMMVEMQSPKKLQHHILIDSAARAFHIHPHLVKVFAEIAQPSLSEHKSDWQRLQESLAGLGCSVHDLQAPLSVLRRLPDTLRESTNRVTTIVYGSQVLGVEQGDTTGTLLGMAFDIGTTTIVGYLLDLNSGRELEVVSTLNPQAQYGGDVISRITFAGKEEKGLDTLHQAVTGAMNRLIGEAVDKAGVSRTQLYGISVAANTTMHHLFLGITPRSIGMSPYVSAINQGLVVAPGELGLEINKAGRVFVLPNIAGFVGADTTAVLLASDLEKSDHVTLILDIGTNGEIVLGSKNRMVACSAAAGPAFEGAQITSGMRGADGAIDHISFDHGLSYTVIGNGRPIGICGSALLDGVAGFVELGMINKRGKFLEPEKLTHPSALKLKDRLIKYEETWAFQLVEAGQTRHGRPILITQNDIRELQLAKGAIAAGVRILQEAMGIECEDIKEVLLAGAFGNYLNPHSACVIGLIPRELESRIKTIGNAAGNGAKIALLSAQEFSRAKDLAGGVSFVELGSYPGFNTIFAQNTYFKLD” as the sequence, how does the “soluble on expression in E. coli” value read?
Answer: soluble

Question: With “MKFEFRTLVLISLAVVVVLSGCSQSPSSGGVPEYSGSKVYSAPTLYSQLIGVPTEGVSVKAYTVENANAKDILSWYKEKLSDYEIVNEMSVVQMTTPQGSAEWGAILFKKGDKGVGIWAMSGSGVEGGGAVYFIVEGPIDKLTGESGEAGGAGEQLPASDQASGEEPVKRYPGSVMLSYYKDTSNPLEVSIGIDYGTEDSAEKVAHWYKQELQAEGWVLESESSDDSSIDLAFSRGKEYIDIYIIEPYEGFLTRKLTSTTGRRGCHLTTWSVERSRWRGIPAQLCWNT” as the sequence, how does the “soluble on expression in E. coli” value read?
Answer: not soluble

Question: For “MKFIQNLTKIHQSTSHMAHAHRSDSAVDSQVASTLREDTVARFSMLMKHPRSLARPTVTWRPPSLKLVGLHSTISPQPHLVASISRRRIGPSVKARLKGFGVRQQPAYLMSVRISDSKSNNVSFEHAEQWMLQLVGPQYAECIHMITDHGQCPVFVWIVGGDFQPLPSPASMFQTFQAAA”, which “soluble on expression in E. coli” value is on record?
Answer: not soluble

Question: For “MKFKTNKLSLNLVLASSLLAASIPAFAVTGDTDQPIHIESDQQSLDMQGNVVTFTGNVIVTQGTIKINADKVVVTRPGGEQGKEVIDGYGKPATFYQMQDNGKPVEGHASQMHYELAKDFVVLTGNAYLQQVDSNIKGDKITYLVKEQKMQAFSDKGKRVTTVLVPSQLQDKNNKGQTPAQKKGN”, which “soluble on expression in E. coli” value is on record?
Answer: soluble

Question: Which “soluble on expression in E. coli” value does the source give for “MKFRRSGRLVDLTNYLLTHPHELIPLTFFSERYESAKSSISEDLTIIKQTFEQQGIGTLLTVPGAAGGVKYIPKMKQAEAEEFVQTLGQSLANPERILPGGYVYLTDILGKPSVLSKVGKLFASVFAEREIDVVMTVATKGIPLAYAAASYLNVPVVIVRKDNKVTEGSTVSINYVSGSSNRIQTMSLAKRSMKTGSNVLIIDDFMKAGGTINGMINLLDEFNANVAGIGVLVEAEGVDERLVDEYMSLLTLSTINMKEKSIEIQNGNFLRFFKDNLLKNGETESHHHHHH” here?
Answer: soluble

Question: With “MKFSRPVLSVNHLILGKKCDVCRKKCSGDVLKANDKYFHINCFQCKKCGRNLGETGFYTTPENAYLCPDDFRAVSKEITVKTTTQQAHASSSSAATPKSPEKSNGTTDVSSSGAANATLQQISPLGSPTTCAACDQALHSGQVLLALGLSWHVYCFKCSECSAVLHGEYMSHHGKPLCLRDYNEKFGVKCYECEKFIAGKVLQAGGYKFHPTCARCSRCGSHFGDGEEMYMQGDEIWHPSCEHARTTENIAPTGRAATLSRNEPKYQSTFGQHQAYMYLLPEVEQTYLRHPVMNAKEPNAPQYHVPQGPIKIRKSRMSMLKTGMQRLTEDLEKNIPRPKSPHMDNEEPIELAHYPAAHVPDPDTLPAIEREDFPAPQFPYAVEELKRRLSTSSVENEISDDEYSESDKVDEDKLRKTVETLEKYNDSSIAHVIRQNIEDSHKKQRLPLHWDPRNASRTPSGKKMPHLKFRYDVPINASPSRHLNRPRPWVVWQGGERDQGNNTLPCFHIPEDSRANTLRAATLPTEFGQNLSLENLDTTISSHYSEHSTTESGTAGGPRSAGGAVLRSSLPDMSKPAKQYDLLFLQTTNSDLPEDVDRQHLERHLPRDQFEEIFKMSLIEFYKLPEWKRINLKRKHKLF” as the sequence, how does the “soluble on expression in E. coli” value read?
Answer: not soluble

Question: For “MKFTWIALPGVLLLSACSSSQPNAPRPPRIGMPNPAAVYCEQQGGTLMPVQTPQGVRSDCKLPNGEIIDEWTLWRREHPDTKK”, which “soluble on expression in E. coli” value is on record?
Answer: not soluble

Question: Which “soluble on expression in E. coli” value does the source give for “MKGPYKHFMQKEIFEQPDSAFNTMRGRIDFENCVVTLGGLKSWLSTIRRCRRIIMIACGTSYHSCLATRSIFEELTEIPVSVELASDFLDRRSPVFRDDTCVFVSQSGETADSILALQYCLERGALTVGIVNSVGSSMSRQTHCGVHINAGPEIGVASTKAYTSQYIALVMFALSLSNDSISRKGRHEEIIKGLQKIPEQIKQVLKLENKIKDLCNSSLNDQKSLLLLGRGYQFATALEGALKIKEISYMHSEGVLAGELKHGILALVDEDLPIIAFATRDSLFPKVMSAIEQVTARDGRPIVICNEGDAIISNDKVHTTLEVPETVDCLQGLLNVIPLQLISYWLAVNRGIDVDFPRNLAKSVTVE” here?
Answer: soluble

Question: For “MKGVNMFERFTDRARRVIVLAQEEARGLNHNYIGTEHILLGLIHEGEGVAAKALESMGISLEAVRQEVEEIIGHGSEPPAGHIPFTPRAKKVLELSLREGLQMGHKYIGTEFLLLGLIREGDGVAAQVLVKLGADLPRVRQQVIQLLS”, which “soluble on expression in E. coli” value is on record?
Answer: not soluble

Question: For “MKGVNQQKKRLKVMTPLEKYQQDLNQEGFMHDSAQRNAVEHLDDLYRRFLELKVPEEPAKKSWKRFFKKEKPQKLTPEKGLYFWGGVGRGKTYLVDTFYDALPTERKMRIHFHRFMQRVHDELGELKQQSDPLLIVADKFKQETDIICFDEFFVSDITDAMILATLLEALFARGITLVATSNILPQDLYRNGLQRARFLPAISLIEQHCDIINVDSGVDYRLRTLEQAEIYHYPLDSDAETNMKGYFLQLASGCDYESTQIEINHRLIEVKAEGDGVVHFDFASLCESARSQHDYIELSRLYHTVLLSNVKIMGEVNDDAARRFIAMVDEFYERNVKLIISAEVDLTSIYQKGRLTFEFQRCQSRLIEMQSHEYLSKEHLSLEHHHHHH”, which “soluble on expression in E. coli” value is on record?
Answer: not soluble

Question: With “MKHPIRKTLVTLGLLLTLCLPTPVAASSRSWKSWFIEQYFWLKRDKSYYSKQDDPSFQRYLDACREQSDKPYQLDTNLVNGPLVQENLYGMQVYSWNDNGKPDQKTIIYLAGGSYLNNPTTYHINMLKTLSTSLDAKIVLPIYPKAPRYTYNYTMPKLVNLYQHYYHKNQNVFLMGDSAGGGLALGLAHALHNESVPQPKQLVLLSPWLDVTMSHPEIPEYEDADPILSSWGLKRVGELWAYSADNTNHIYVSPKNGPITYLPPITLFTGTREIFYPDIRDYAAKLKAANHNITFITQEGMNHVYPIYPIEEAKTAQYQIIDAINKTP” as the sequence, how does the “soluble on expression in E. coli” value read?
Answer: not soluble

Question: With “MKIACVVLTYNRLSLLKRCIDSIRNQTYQEFDIYVIDNASTDGTAHWLSLQNDLTVISIHENKGPANGFYTCLQVPYDDGYDWIWMMDDDGVADKGQLEELLNKTVKNNLYFTNALVCNIDNPEKIAFGAKKTIDTQREELIKGNINPFNGTFIHRRVIEKNGNIMREMYMYGCETEYQLRAIKNGFQVATVTSAIHYHPSPKVSICHLIPYIKYCSIIDYPIDTLFYIRNKAYINYTYLGFKRSLFMITSYSLYYLFRLKIRKVLLFWKYYREGCKGVVGNKKQ” as the sequence, how does the “soluble on expression in E. coli” value read?
Answer: soluble

Question: For “MKIADGVYVHFIPTQKYKTNRIVFRMTGSLNKQTIAKRALVSQMLATANQTYPTVQSFKERLASLYGTQLSTKVSTKGLTHSVDIELTYLKDFFIPMNTSLFWEVLGFLMDCLYNPLSIVAQYQNKVFDIEKQNLMTYLDVDTENNYYYSEVQGRELYFVNEALKVPKYGRVELVEAETSFTAYQEFQSMLTKDRIDIFMVGEFDDYQVLRGLHRFPLEGRQVDLQFSYNQSYSKVVKEKIETRQTSQSILQLGYQFPCQYGDKDYFALIVFNGMLGEFAHSALFTKIREKEGLAYSIGSQFDAFTGLLEIYAGIEKSNRNQAMRGIIRELNHIKLGRFSSSLFNQTKKIIRMNALLSEDHALTLVEQHFNKVIFGDKKISLEDWLDKIEKVTKKDVCRIARQVKLQSLFFLEGVS”, which “soluble on expression in E. coli” value is on record?
Answer: not soluble
